In US20250382367A1 (published 2025):

Experiments:
[1] = target: T1, biotinylated CD150 protein (UniProt Q13291 21-237, labeled with biotin, sites not stated); experiment: BLI
T1 chain: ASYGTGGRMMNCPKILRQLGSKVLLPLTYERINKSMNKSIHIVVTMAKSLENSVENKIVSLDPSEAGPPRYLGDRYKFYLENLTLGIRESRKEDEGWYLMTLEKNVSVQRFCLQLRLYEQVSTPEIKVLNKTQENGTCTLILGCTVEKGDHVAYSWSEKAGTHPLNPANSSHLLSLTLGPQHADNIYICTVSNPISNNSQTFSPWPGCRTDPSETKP

[2] = target: CD150 protein (extracellular domain, hFc fragment cleaved off with TEV protease) (UniProt Q13291); experiment: non-competitive ELISA; CD150 coated at 10 ug/mL, nanobody Fc fusion diluted 1:4 in series, HRP anti-IgG1 Fc detection

Kd [1]: 20.1 nM
EC50 [2]: 0.0333 µg/mL
B1: nanobody Fc fusion protein (anti-CD150 nanobody fused with human IgG1 Fc) (Fc fusion)
chain: QVQLVESGGGLVQAGGSLRLSCAASGRAFSDYAVGWFRQAPGREREFVATISWSGFSTYYADSVKGRFTISRDNAEKTVTLQMNSLKPEDTAVYYCAADRNGTSFPYIRRDEYDYWGQGTQVT
